Measurements reported in patent US20200317808A1 (AbbVie / Abbott, published 2020).
Each block holds one molecule with its values, some of them ahead of it.

What was measured:
[1] = biological target: T1, cynomolgus PD-1 Fc fusion (cynomolgus monkey, UniProt B0LAJ3 25-170); test: ELISA on plate bound cynomolgus PD-1 Fc fusion
T1 construct: also called Cyno PD-1 (ELISA)

[2] = biological target: T2, human PD-1 expressed on cells (human, UniProt Q15116 25-288); test: cell-based or functional assay
T2 sequence (Q15116 25-288 limits assumed): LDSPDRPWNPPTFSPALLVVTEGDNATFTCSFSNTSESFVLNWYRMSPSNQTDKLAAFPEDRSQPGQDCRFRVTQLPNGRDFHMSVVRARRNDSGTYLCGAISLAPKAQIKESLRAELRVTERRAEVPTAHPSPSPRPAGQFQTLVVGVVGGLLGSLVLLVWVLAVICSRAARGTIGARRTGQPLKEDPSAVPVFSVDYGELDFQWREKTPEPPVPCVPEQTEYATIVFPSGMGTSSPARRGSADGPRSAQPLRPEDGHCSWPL

human PD-1 Fc fusion = biological target: T3, human PD-1 Fc fusion (human, UniProt Q15116 25-170); test: ELISA on plate bound human PD-1 Fc fusion
T3 construct: also called Hu PD-1 (ELISA); not shown: Fc part of the fusion
T3 sequence (Q15116 25-170 limits assumed): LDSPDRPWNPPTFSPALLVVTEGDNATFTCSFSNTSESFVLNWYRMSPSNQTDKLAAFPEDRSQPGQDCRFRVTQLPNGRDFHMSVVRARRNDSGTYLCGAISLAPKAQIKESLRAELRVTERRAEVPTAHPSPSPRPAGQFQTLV

[3] = biological target: T2, human PD-1 expressed on cells; test: flow cytometry on PD-1 expressing Jurkat cells
[4] = biological target: T2, human PD-1 expressed on cells; test: flow cytometry on activated human CD4+ T cells
Description: Cells were analyzed using Becton Dickinson FACSCanto flow cytometer. Data was analyzed using BD FACSDiva software (version 8.0.1).

[5] = biological target: T4, Recombinant extracellular domain of human PD-1 (residues 1-167) (human, UniProt Q15116 25-167); test: SPR, Biacore T200, antibody captured by anti-human Fc, PD-1 ECD as analyte
T4 construct: Bought from a commercial source; also called recombinant soluble PD-1 ECD; PD-1 ECD
T4 sequence (Q15116 25-167): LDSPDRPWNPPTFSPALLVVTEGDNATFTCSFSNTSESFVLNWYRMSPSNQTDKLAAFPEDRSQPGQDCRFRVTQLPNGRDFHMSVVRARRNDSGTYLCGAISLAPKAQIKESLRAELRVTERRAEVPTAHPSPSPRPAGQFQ
Text: Unreacted moieties on the biosensor surface were blocked with ethanolamine.

[6] = biological target: T2, human PD-1 expressed on cells; test: flow cytometry on PD-1 expressing Jurkat cells; samples incubated 30 days at -80, 5, 25 or 40°C
Description: (§1) PD-1 expressing Jurkat cells were harvested from flasks and resuspended to 2×10⁶ cells/mL in PBS containing 1% BSA. 100 μL of cells were added to a round bottom 96 well plate containing 100 μL of titrated test antibody or isotype control. Cells were incubated with antibodies at room temperature for 25 minutes and then washed twice with PBS containing 1% BSA. The cell pellet was resuspended in 100 μL of a 1:250 diluted secondary antibody goat anti-human Fab PE. Following 25 minutes incubation at RT, cells were washed twice with PBS containing 1% BSA and resuspended in 200 μL of 1% BSA. Cells were analyzed using Becton Dickinson FACSCanto flow cytometer. Data was analyzed using BD FACSDiva software (version 8.0.1).

[7] = biological target: T2, human PD-1 expressed on cells; test: flow cytometry on PD-1 expressing Jurkat cells; samples stored 30 days at the given temperature or oxidised with 1% hydrogen peroxide or 1% tert-butyl hydroperoxide
Description: as §1
(§2) The antibody variants were screened for binding to human PD-1 transfected Jurkat cells and EC₅₀ values were determined (FIG. 3B).

[8] = biological target: T2, human PD-1 expressed on cells; test: flow cytometry on human PD-1 transfected Jurkat cells
Description: as §1, §2

T1 sequence (B0LAJ3 entry or part of it limits assumed): as the sequence (Q15116 25-170 limits assumed) above, with D2E, P10A, V19L, T35A, Q75R, T144A counted along it

EC50 [1]: 0.07 nM
Molecule: Nivolumab (antibody)

Jurkat NFAT EC50 [2]: 4.5 µg/mL
EC50 (human PD-1 Fc fusion): 0.197 nM
EC50 [1]: 0.102 nM
EC50 [3]: 0.045 nM
EC50 [4]: 0.18 nM
Kd [5]: 2.1 nM
EC50 (read off the curve) [6]: ~0.01 µg/mL
B1: Humanized 12A11.2b with M99L in CDR-H3 (antibody, V domains shown)
VH: EIQLVQSGAEVKKPGSSVKVSCKASGYTFTHYGMNWVRQAPGQGLEWVGWVNTYTGEPTYADDFKGRLTFTLDTSTSTAYMELSSLRSEDTAVYYCTREGEGLGFGDWGQGTTVTVSS
VL: DVVMTQSPLSLPVTPGEPASISCRSSQSIVHSHGDTYLEWYLQKPGQSPQLLIYKVSNRFSGVPDRFSGSGSGTDFTLKISRVEAEDVGVYYCFQGSHIPVTFGQGTKLEIK
notes: It was detected with anti-human Fab and captured with anti-human IgG Fc; also called Hu12A11.2b4; humanized antibody 12A11.2b M99L

binding result [7]: binds
B2: Humanized 12A11.2b with mouse CDRs (antibody, V domains shown)
VH: EIQLVQSGAEVKKPGSSVKVSCKASGYTFTHYGMNWVRQAPGQGLEWVGWVNTYTGEPTYADDFKGRLTFTLDTSTSTAYMELSSLRSEDTAVYYCTREGEGMGFGDWGQGTTVTVSS
VL: DVVMTQSPLSLPVTPGEPASISCRSSQSIVHSHGDTYLEWYLQKPGQSPQLLIYKVSNRFSGVPDRFSGSGSGTDFTLKISRVEAEDVGVYYCFQGSHIPVTFGQGTKLEIK
notes: also called Hu12A11.2b1; M99 parent antibody

binding result [8]: binds
B3: Humanized 12A11.2b with M99I in CDR-H3 (antibody, V domains shown)
VH: EIQLVQSGAEVKKPGSSVKVSCKASGYTFTHYGMNWVRQAPGQGLEWVGWVNTYTGEPTYADDFKGRLTFTLDTSTSTAYMELSSLRSEDTAVYYCTREGEGIGFGDWGQGTTVTVSS
VL: DVVMTQSPLSLPVTPGEPASISCRSSQSIVHSHGDTYLEWYLQKPGQSPQLLIYKVSNRFSGVPDRFSGSGSGTDFTLKISRVEAEDVGVYYCFQGSHIPVTFGQGTKLEIK
notes: also called Hu12A11.2b2; M99I variant

binding result [8]: binds
B4: Humanized 12A11.2b with M99V in CDR-H3 (antibody, V domains shown)
VH: EIQLVQSGAEVKKPGSSVKVSCKASGYTFTHYGMNWVRQAPGQGLEWVGWVNTYTGEPTYADDFKGRLTFTLDTSTSTAYMELSSLRSEDTAVYYCTREGEGVGFGDWGQGTTVTVSS
VL: DVVMTQSPLSLPVTPGEPASISCRSSQSIVHSHGDTYLEWYLQKPGQSPQLLIYKVSNRFSGVPDRFSGSGSGTDFTLKISRVEAEDVGVYYCFQGSHIPVTFGQGTKLEIK
notes: also called Hu12A11.2b3; M99V variant
